Reference: publication doi:10.1101/2023.02.28.530553

T1: MBP-OsRFL (Oryza sativa L., UniProt Q0JAI1 1-389)
T1 sequence: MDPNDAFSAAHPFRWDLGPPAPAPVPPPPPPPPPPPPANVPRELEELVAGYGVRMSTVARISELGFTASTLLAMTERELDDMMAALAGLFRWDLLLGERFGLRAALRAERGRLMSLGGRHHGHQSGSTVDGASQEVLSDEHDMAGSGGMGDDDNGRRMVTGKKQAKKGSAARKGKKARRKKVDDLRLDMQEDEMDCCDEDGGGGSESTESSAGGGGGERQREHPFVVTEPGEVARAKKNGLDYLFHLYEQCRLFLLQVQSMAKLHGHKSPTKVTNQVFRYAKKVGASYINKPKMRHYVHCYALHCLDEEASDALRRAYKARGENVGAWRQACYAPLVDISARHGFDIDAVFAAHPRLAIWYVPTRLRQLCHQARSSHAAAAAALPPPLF

B1: OsRFL promoter NRE probe (EMSA/OsRFL-3) (dsDNA)
DNA 1: TAATACTGTTGTTTGATACTAATGAGTCAAGTTG
DNA 2: CAACTTGACTCATTAGTATCAAACAACAGTATTA
B2: OsMOC1 promoter probe (EMSA/OsMOC1) (dsDNA)
DNA 1: TGGTGTTACCACTGGCTTGATCA
DNA 2: TGATCAAGCCAGTGGTAACACCA

Columns and labels:
MBP-OsNLP3 = MBP-OsNLP3 (Oryza sativa L., UniProt Q5NB82 1-938); assay: EMSA
MBP-OsRFL = target: T1, MBP-OsRFL; assay: EMSA

Sequence of MBP-OsNLP3 (Q5NB82 whole entry): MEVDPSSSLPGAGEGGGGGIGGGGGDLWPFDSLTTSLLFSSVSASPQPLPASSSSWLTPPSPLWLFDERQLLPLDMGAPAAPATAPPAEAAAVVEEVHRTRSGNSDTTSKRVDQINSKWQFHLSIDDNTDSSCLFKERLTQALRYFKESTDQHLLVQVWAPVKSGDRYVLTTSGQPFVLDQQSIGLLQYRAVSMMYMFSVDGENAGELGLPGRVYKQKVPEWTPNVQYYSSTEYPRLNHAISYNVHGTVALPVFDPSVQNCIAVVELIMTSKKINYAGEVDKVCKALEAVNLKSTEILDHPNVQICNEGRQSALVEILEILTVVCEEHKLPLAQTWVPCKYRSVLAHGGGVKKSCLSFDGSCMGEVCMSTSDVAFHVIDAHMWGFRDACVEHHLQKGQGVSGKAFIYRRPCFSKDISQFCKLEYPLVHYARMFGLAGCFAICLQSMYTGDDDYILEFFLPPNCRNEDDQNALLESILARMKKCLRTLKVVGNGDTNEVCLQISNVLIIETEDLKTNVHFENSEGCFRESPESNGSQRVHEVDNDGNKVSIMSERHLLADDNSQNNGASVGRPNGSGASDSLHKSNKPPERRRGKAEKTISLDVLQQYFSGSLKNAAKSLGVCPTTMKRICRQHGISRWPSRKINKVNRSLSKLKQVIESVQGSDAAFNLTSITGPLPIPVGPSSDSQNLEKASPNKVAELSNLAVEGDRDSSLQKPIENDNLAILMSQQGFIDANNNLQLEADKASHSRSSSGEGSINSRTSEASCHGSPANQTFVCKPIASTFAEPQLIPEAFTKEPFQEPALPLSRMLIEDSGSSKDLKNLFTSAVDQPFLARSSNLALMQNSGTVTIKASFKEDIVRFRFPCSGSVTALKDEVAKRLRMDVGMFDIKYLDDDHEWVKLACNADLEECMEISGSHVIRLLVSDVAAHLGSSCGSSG

| Binder | binding result (MBP-OsNLP3) | binding result (MBP-OsRFL) |
| --- | --- | --- |
| B1 | binds | – |
| B2 | – | binds |
